Test results published in PMC7401801.

Target: CRM1 (UniProt O14980)
Assay: GFP IP of CRM1-EGFP, Flag blot
Conditions: reference: Flag-TFEB wild type; sites S142

Substance: TFEB (from UniProt P19484) Flag-TFEB(S142A)
- binding against the reference: weaker
